Data published in article PMC3594189, “Cellular Catabolism of the Iron-Regulatory Peptide Hormone Hepcidin” (PLoS ONE, 2013).
Blank lines part the entries; values can stand above or below the molecule they belong to. No end group written: not given here.

Columns and labels:
[1] = molecular target: T1, ECR293 cells expressing Fpn-GFP (Mus musculus, UniProt Q9JHI9); assay type: cell-based; conditions: for effect of lysosomal inhibitor on degradation of both hepcidin and ferroportin: chloroquine 100 µM or bafilomycin 100 nM for 20 h after 4 h TR-Hep loading, flow cytometry
T1 construct: expressed in transfected cells; host or cells: ECR293 (ECR-Fpn) cells, ponasterone-inducible
T1 sequence (Q9JHI9 1-570): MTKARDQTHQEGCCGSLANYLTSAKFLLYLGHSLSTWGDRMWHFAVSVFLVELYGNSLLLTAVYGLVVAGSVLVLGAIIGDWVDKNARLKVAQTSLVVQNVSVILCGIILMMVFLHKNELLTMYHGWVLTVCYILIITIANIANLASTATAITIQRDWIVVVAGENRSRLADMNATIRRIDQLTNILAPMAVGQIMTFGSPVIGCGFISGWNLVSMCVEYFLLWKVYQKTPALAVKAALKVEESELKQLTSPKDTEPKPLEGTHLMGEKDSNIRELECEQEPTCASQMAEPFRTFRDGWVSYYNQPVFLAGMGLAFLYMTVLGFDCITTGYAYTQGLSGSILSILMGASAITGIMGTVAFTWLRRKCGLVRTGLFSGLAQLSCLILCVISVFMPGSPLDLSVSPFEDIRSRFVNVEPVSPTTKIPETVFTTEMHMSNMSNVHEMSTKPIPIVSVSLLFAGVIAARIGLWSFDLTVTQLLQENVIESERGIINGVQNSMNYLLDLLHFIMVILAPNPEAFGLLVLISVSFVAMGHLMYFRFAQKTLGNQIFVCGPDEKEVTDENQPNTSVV
Procedure: ECR-Fpn cells were plated on poly-D-lysine-coated plates in the presence of 20 µM FAC, with or without 10 µM ponasterone. After 24 h, ponasterone was washed off, and cells were loaded with 1 µg/ml TR-Hep for 4 h. After 4 h, cells were washed with PBS, fresh media was added and cells were treated with or without lysosomal inhibitors chloroquine (100 µM) and bafilomycin (100 nM). Twenty hours after the addition of inhibitors, cells were trypsinized and resuspended at 1×10^6 cells/ml, and the intensity of red and green fluorescence was analyzed by flow cytometry at UCLA Jonsson Comprehensive Cancer Center and Center for AIDS Research Flow Cytometry Core Facility (supported by NIH awards CA-16 042 and AI-28 697, the UCLA AIDS institute, and the UCLA School of Medicine). Flow cytometry was performed on FACSVantage SE sorting flow cytometer with digital electronics (Becton Dickinson, San Jose, CA) and analyzed with FACSDiva software (Becton Dickinson). Cells not induced with ponasterone were used to establish a gate to exclude background fluorescence. Loss of cellular Fpn-GFP was quantified as % of green fluorescence in induced cells not treated with hepcidin. Degradation of cellular TR-Hep was measured as % of red fluorescence in induced cells treated with TR-Hep for 4 h.

[2] = molecular target: T1, ECR293 cells expressing Fpn-GFP; assay type: cell-based
Procedure: ECR-Fpn cells were plated on poly-D-lysine coated plates in the presence of 20 µM FAC, with or without 10 µM ponasterone, and incubated at 37°C. After 24 h, cells were washed with PBS and 1 ml of serum free media was added. The cells were treated with 5×10^5 cpm of ^125I–hepcidin for 2 h (loading period) at 37°C. After 2 h the cells were washed 3 times with DMEM/10% fetal bovine serum to remove unbound ^125I-hepcidin and 1 ml serum-free media with 20 µM FAC was added to all wells. Cells were incubated at 37°C for 5 min, 4, 8 and 24 h after loading. To prevent lysosomal acidification and proteolysis, 100 nM bafilomycin was added to assigned wells for 24 h. The supernatant was collected, its radioactivity quantified by a gamma counter, and an aliquot subjected to HPLC analysis. The cells were washed once and centrifuged for 2 min at 12,000xg through a silicone oil layer (Nyosil M25, Nye, Fairhaven, MA). The radioactivity in cell pellets was determined by gamma counting (Beckman, Fullerton, CA).
Aliquots of the supernatants were analyzed by reversed-phase high-performance liquid chromatography (RP-HPLC) on Vydac C18 column (218TP54; Waters). Fractions were eluted over 30 minutes with an acetonitrile gradient (1 fraction per minute) and their radioactivity determined by gamma counting.

[3] = molecular target: T2, Fpn-GFP expressing cells (Mus musculus, UniProt Q9JHI9); assay: Confocal microscopy co-localization of TR-Hep with Fpn-GFP; assay type: cell-based
T2 construct: expressed in transfected cells; host or cells: ECR293 (ECR-Fpn) cells, ponasterone-inducible
T2 sequence (Q9JHI9 1-570): T1 sequence (Q9JHI9 1-570)
Procedure: ECR-Fpn cells were plated in a 12-well plate on 12 mm poly-D-lysine coated round coverslips (Becton Dickinson, Franklin Lakes, NJ) in the presence of 20 µM ferric ammonium citrate (FAC) with or without 10 µM ponasterone. FAC is added to the medium to prevent cellular iron depletion caused by prolonged Fpn-GFP overexpression. After 24 h, ponasterone was washed off, and cells were treated with 1 µg/ml TR-Hep at 37°C protected from light. After 1 hour, cells were washed with PBS two times and the coverslip was placed on a slide, sealed with clear nail polish and immediately analyzed. Images were scanned at the UCLA CNSI Advanced Light Microscopy Facility and the BRI Cell Imaging Facility on a Leica TCS-SP MP Confocal and Multiphoton Inverted Microscope (Heidelberg, Germany) equipped with an argon laser (488 nm blue excitation: JDS Uniphase), a 561 nm (green) diode laser (DPSS: Melles Griot), and a two photon laser setup consisting of a Spectra-Physics Millenia×532 nm green diode pump laser and a Tsunami Ti-Sapphire picosecond pulsed infrared laser tuned at 768 nm for UV excitation. Images were acquired using LCS Lite software (Leica Confocal Software, Leica Microsystems, Manheim, Germany).

[4] = molecular target: T3, Fpn-GFP expressing ECR293 cells (ferroportin) (Mus musculus, UniProt Q9JHI9); assay: Temperature and pH dependent 125I-hepcidin binding/internalization assay; assay type: cell-based
T3 construct: expressed in transfected cells; host or cells: ECR293 (ECR-Fpn) cells, ponasterone-inducible
T3 sequence (Q9JHI9 1-570): T1 sequence (Q9JHI9 1-570)
Procedure: ^125I-hepcidin (10^6 cpm, specific activity ∼10^7 cpm/µg) was added to ECR-Fpn cells plated on poly-D-lysine coated plates in the presence of 20 µM FAC, with or without 10 µM ponasterone. Cells were incubated with radiolabeled hepcidin at different temperatures (0, 15, 23 and 37°C) for 1 hour. For pH experiments, growth medium was replaced with media adjusted to pH of 2, 4, 5, 6, 7, 8 and 9 (without additional FAC) and radiolabeled hepcidin was added for 1 h at 37°C. Cells were washed with phosphate-buffered saline (PBS) to remove unbound radioactive hepcidin and centrifuged for 2 minutes at 12,000xg through a silicone oil layer (Nyosil M25; Nye). The radioactivity in cell pellets was determined by gamma counting. The temperature-dependence data are expressed in counts-per-minute (cpm), whereas pH-dependence data were normalized because of the variability in absolute cpm values between experiments and expressed as % of radioactivity at pH 7. The radioactivity of uninduced cells subtracted as background for each point.

[5] = cited from earlier work
Description: This study was the first to examine the fate of hepcidin from its initial binding to ferroportin to its cellular catabolism. We show here that hepcidin is internalized together with ferroportin and that both are degraded in lysosomes. Because of the small size of hepcidin (∼2.7 kD) and its weak binding to plasma proteins, glomerular filtration and proteolysis in proximal tubules is thought to be the major mechanism for hepcidin clearance from blood. Detectable concentrations of hepcidin in urine, indicative of peptide that escaped proteolysis in the proximal tubules, are consiste ...

[6] = tested on: ferroportin; conditions: naturally occurring urinary forms; cited from earlier work

Molecule: CO/C1=C\C(C)=C\[C@@H](C)[C@@H](O)[C@@H](C)C/C(C)=C/C=C/[C@H](OC)[C@@H]([C@@H](C)[C@@H](O)[C@H](C)[C@@]2(O)C[C@@H](O)[C@H](C)[C@@H](C(C)C)O2)OC1=O [bafilomycin, reference compound]
effect of lysosomal inhibitor on degradation of both hepcidin and ferroportin [1]: completely prevented the degradation
effect of bafilomycin on cellular radioactivity ([2]; 100 nM bafilomycin for 24 h after 125I-hepcidin loading, gamma counting of cell pellets): increased the retention of radioactivity in cells

degradation of Fpn-GFP after TR-Hep ([1]; 24 h after addition of 1 µg/ml TR-Hep, green fluorescence by flow cytometry): nearly completely degraded
co-localization of red hepcidin with green ferroportin in vesicles ([3]; 1 µg/ml TR-Hep, 1 h, 37°C, induced cells, confocal microscopy): nearly complete co-localization
red fluorescence in uninduced cells ([3]; uninduced cells treated with TR hepcidin, data not shown): no detectable red fluorescence
Molecule: TR-Hep: synthetic hepcidin labeled with Texas Red-X succinimidyl ester

binding of 125I-hepcidin to Fpn-GFP expressing cells at temperatures below 37°C ([4]; 1 h at 0, 15, 23 and 37°C, cell-bound radioactivity by gamma counting (cpm), at least three experiments): decreased
Molecule: ^125I-hepcidin: synthetic hepcidin with M21Y substitution iodinated with 125I (DTHFPICIFCCGCCHRSKCGYCCKT; disulfide (positions not given here); not fully specified (bridges); ends not checked; also: iodinated with 125I, site not given here; UniProt P81172 60-84, looked up, variant M21Y)
radioactivity in cell pellets after loading [2]: almost complete loss of radioactivity

effect of lysosomal inhibitor on degradation of both hepcidin and ferroportin [1]: completely prevented the degradation
Molecule: CCN(CC)CCCC(C)Nc1ccnc2cc(Cl)ccc12 (stereo not drawn) [chloroquine]

specific binding at pH lower than 6 ([4]; pH 2, 4, 5, 1 h at 37°C, uninduced-cell background subtracted): did not bind specifically
binding to ferroportin at pH 9 ([4]; pH 9 among pH 2, 4, 5, 6, 7, 8 and 9, 1 h at 37°C, normalized to pH 7): highest binding
Molecule: Hepcidin: 25-amino acid peptide hormone, principal regulator of plasma iron concentrations; synthetic hepcidin from Peptides International
binding to plasma proteins [5]: weak binding

Molecule: hepcidin-20: degradation product of hepcidin-25 detected in urine, truncated at the N-terminus by 5 amino acids (ICIFCCGCCHRSKCGMCCKT; disulfide (positions not given here); ends not checked; also: disulfide bridges, pairing not given here; UniProt P81172 65-84, looked up)
activity relative to hepcidin-25 [6]: much less active than hepcidin-25
